Data reported in patent US20200048348A1.

Experiments:
human CD3 (human) [1] = target: human CD3 (human) (UniProt P07766)
human CD3 (human) [2] = target: human CD3 (human) (UniProt P07766); assay: flow cytometry, bispecific antibody on Jurkat cells; antibody concentration not given
human CD3 (human) [3] = target: human CD3 (human) (UniProt P07766); assay: Octet, protein binding affinity of the anti-CD3 arm of the bispecific; form of the CD3 protein not stated

human CD3 (human), sequence (P07766 23-207, chain 1 of 2): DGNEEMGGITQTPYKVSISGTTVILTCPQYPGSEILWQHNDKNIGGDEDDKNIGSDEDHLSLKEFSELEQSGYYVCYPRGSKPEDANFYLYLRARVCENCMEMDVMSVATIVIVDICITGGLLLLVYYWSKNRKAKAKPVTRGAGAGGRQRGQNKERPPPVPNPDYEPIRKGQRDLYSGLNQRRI
human CD3 (human), sequence (P04234 22-171, chain 2 of 2, further chain): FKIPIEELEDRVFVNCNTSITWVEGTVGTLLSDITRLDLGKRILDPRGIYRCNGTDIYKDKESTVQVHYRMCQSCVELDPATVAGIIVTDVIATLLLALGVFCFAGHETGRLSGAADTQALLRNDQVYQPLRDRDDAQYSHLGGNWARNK

B1: CD3_F2F-BCMA (bispecific antibody, part only; not given: anti-BCMA arm and common light chain, part only)
anti-CD3 heavy chain: EVQLVESGGGLVQPGRSLRLSCAASGFTFHNYAMHWVRQAPGKGLEWVSGISWNSGSIGYADSVKGRFTISRDNAKNSLYLQMNSLRAEDTALYYCAKDSRGYGDYSLGGAYWGQGTLVTVSS
Q: With B1 as the binder, how does the %kill of U266 tumor cells with human pan T-cells at 333 ng/mL bispecific (human CD3 (human) [1]) read?
A: 51%

Q: And the IFNg released by pan T-cells, bispecific on plate-coated BCMA protein, at 12 ng/mL bispecific (human CD3 (human) [1])?
A: 333 pg

Q: And the IL-2 released by pan T-cells, bispecific on plate-coated BCMA protein, at 37 ng/mL bispecific (human CD3 (human) [1])?
A: 44 pg

Q: And the IL-6 released by pan T-cells, bispecific on plate-coated BCMA protein, at 111 ng/mL bispecific (human CD3 (human) [1])?
A: 0.5 pg

Q: What about the IL-10 released by pan T-cells, bispecific on plate-coated BCMA protein, at 111 ng/mL bispecific (human CD3 (human) [1]) of the same binder?
A: 2.4 pg

Q: What about the TNFa released by pan T-cells, bispecific on plate-coated BCMA protein, at 12 ng/mL bispecific (human CD3 (human) [1]) of the same binder?
A: 485 pg

Q: And the kill EC50: U266 tumor cell lysis with human pan T-cells (human CD3 (human) [1])?
A: 0.0098 µg/mL

Q: And the Jurkat cell bind (MFI) (human CD3 (human) [2])?
A: 67 MFI

Q: And the Kd (human CD3 (human) [3])?
A: 714 nM

B2: CD3_F2B-BCMA (bispecific antibody, part only; not given: anti-BCMA arm and common light chain, part only)
anti-CD3 heavy chain: EVQLVESGGGLVQPGRSLRLSCAASGFTFDDYAMHWVRQAPGKGLEWVSGISWNSGSIGYADSVKGRFTISRDNAKNSLYLQMNSLRAEDTALYYCAKDSRGYGDYRLGGAYWGQGTLVTVSS
Q: B2 was tested. Which %kill of U266 tumor cells with human pan T-cells at 333 ng/mL bispecific (human CD3 (human) [1]) did it give?
A: 38%

Q: And the IFNg released by pan T-cells, bispecific on plate-coated BCMA protein, at 12 ng/mL bispecific (human CD3 (human) [1])?
A: 154 pg

Q: What about the IL-2 released by pan T-cells, bispecific on plate-coated BCMA protein, at 37 ng/mL bispecific (human CD3 (human) [1]) of the same binder?
A: 8 pg

Q: What about the IL-6 released by pan T-cells, bispecific on plate-coated BCMA protein, at 111 ng/mL bispecific (human CD3 (human) [1]) of the same binder?
A: 0.5 pg

Q: And the IL-10 released by pan T-cells, bispecific on plate-coated BCMA protein, at 111 ng/mL bispecific (human CD3 (human) [1])?
A: 0.6 pg

Q: And the TNFa released by pan T-cells, bispecific on plate-coated BCMA protein, at 12 ng/mL bispecific (human CD3 (human) [1])?
A: 553 pg

Q: What about the kill EC50: U266 tumor cell lysis with human pan T-cells (human CD3 (human) [1]) of the same binder?
A: 0.15 µg/mL

Q: What about the Jurkat cell bind (MFI) (human CD3 (human) [2]) of the same binder?
A: 31 MFI

Q: And the Kd (human CD3 (human) [3])?
A: 1000 nM
